For test [1], the target named is T1, human CCR10 (CCX CKR) with N-terminal FLAG epitope, stably expressed on HEK293 cells (human, UniProt Q9NPB9 1-350).
T1 construct: also called HEK293-CCR10 cells; CCR10-expressing cells
T1 sequence: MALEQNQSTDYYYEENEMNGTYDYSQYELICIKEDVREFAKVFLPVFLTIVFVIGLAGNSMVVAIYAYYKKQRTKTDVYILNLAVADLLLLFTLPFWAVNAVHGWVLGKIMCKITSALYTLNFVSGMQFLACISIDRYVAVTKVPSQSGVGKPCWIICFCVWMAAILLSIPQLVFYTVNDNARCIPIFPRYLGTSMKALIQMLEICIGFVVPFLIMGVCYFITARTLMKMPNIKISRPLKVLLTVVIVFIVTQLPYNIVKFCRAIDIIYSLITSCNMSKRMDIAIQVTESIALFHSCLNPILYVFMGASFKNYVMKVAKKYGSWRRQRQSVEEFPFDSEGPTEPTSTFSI
Briefly: summary of Example 1; assay for this ligand not described.

For test [2], the target named is T2, CCR4 on transfected mouse myeloma NSO cells (UniProt P51679 1-360, limits assumed).
T2 construct: whole, on cells; also called CCR4-NSO; CCR4 NSO cells
T2 sequence (looked up): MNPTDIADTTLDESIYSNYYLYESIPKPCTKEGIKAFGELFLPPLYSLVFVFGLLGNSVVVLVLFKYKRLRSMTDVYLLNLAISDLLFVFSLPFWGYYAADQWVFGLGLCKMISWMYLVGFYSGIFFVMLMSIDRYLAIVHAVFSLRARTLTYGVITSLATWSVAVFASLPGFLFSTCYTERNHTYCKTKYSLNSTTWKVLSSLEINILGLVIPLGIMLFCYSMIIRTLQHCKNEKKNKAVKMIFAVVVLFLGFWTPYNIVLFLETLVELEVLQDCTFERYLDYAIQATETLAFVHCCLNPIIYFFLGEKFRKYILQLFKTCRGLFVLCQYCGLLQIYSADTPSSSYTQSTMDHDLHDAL
Briefly: preincubation of CCR4-NSO cells with 10 ug/ml soluble chemokine, then adhesion to immobilized MDC-FRAC or TARC-FRAC.

Test [3] deals with T3, CCR8 on transfected mouse myeloma NSO cells (UniProt P51685 1-355, limits assumed).
T3 construct: whole, on cells; also called CCR8-NSO
T3 sequence (P51685 whole entry): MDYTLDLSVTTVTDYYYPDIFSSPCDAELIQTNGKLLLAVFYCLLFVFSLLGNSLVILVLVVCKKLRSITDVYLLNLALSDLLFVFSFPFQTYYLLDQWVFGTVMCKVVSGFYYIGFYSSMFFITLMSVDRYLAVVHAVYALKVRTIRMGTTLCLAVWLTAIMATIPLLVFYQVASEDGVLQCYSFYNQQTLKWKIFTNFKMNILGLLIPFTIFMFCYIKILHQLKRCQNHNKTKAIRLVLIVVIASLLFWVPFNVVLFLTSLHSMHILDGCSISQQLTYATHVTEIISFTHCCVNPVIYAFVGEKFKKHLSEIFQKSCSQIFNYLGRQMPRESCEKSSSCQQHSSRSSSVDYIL
The test is described as follows: adhesion of receptor-expressing NSO cells to immobilized stalkokine.

Test [4] has as its target T1, human CCR10 (CCX CKR) with N-terminal …. The test is described as follows: homologous competition, radiolabeled TECK with cold TECK on cells.
For test [5], the target named is T4, CCR7 on transfected mouse myeloma NSO cells (UniProt P32248 25-378, limits assumed).
T4 construct: whole, on cells; also called CCR7-NSO
T4 sequence (looked up): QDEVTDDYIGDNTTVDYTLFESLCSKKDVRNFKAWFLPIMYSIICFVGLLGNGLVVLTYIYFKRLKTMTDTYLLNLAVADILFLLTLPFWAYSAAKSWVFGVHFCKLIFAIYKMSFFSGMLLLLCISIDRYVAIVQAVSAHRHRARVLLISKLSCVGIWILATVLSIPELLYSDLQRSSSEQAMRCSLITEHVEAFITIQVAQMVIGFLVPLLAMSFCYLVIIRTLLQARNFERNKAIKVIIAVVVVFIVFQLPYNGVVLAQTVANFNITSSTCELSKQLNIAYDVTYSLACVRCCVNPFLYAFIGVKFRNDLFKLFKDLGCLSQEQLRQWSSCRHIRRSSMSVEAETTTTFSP
The test is described as follows: adhesion of receptor-expressing NSO cells to immobilized stalkokine.

Test [6] addresses T1, human CCR10 (CCX CKR) with N-terminal …. Briefly: adhesion of HEK293-CCR10 cells to stalkokine immobilized via anti-His antibody on chamber slides.
For test [7] the target is unchanged. The test is described as follows: homologous competition, radiolabeled ELC with increasing unlabeled ELC on cells.
For test [8], the target named is T5, CCR4 on CEM cells (UniProt P51679 1-360, limits assumed).
T5 construct: whole, on cells; also called CEM cells expressing CCR4; CEM cells that express CCR4
T5 sequence (looked up): T2 sequence (looked up)
Briefly: displacement of radiolabeled MDC or TARC from CEM cells expressing CCR4 by stalkokine supernatant.

In test [9] the target is T2, CCR4 on transfected mouse myeloma NSO …. Briefly: adhesion of receptor-expressing NSO cells to immobilized stalkokine.
Test [10] addresses T5, CCR4 on CEM cells. Briefly: displacement of radiolabeled MDC or TARC from CEM cells expressing CCR4 by soluble MDC.
The target of test [11] is T6, CCR1 on transfected mouse myeloma NSO cells (UniProt P32246 1-355, limits assumed).
T6 construct: whole, on cells; also called CCR1-NSO
T6 sequence (looked up): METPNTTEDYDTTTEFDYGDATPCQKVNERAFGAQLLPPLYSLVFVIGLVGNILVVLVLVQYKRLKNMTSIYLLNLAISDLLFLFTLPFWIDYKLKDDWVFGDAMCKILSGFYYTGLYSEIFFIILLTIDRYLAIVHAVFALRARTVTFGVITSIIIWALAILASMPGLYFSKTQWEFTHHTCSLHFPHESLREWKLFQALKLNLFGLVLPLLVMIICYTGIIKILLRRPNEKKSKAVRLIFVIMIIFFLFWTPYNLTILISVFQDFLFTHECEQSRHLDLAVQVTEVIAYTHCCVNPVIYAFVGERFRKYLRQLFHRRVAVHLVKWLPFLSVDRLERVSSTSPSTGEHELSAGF
The test is described as follows: adhesion of receptor-expressing NSO cells to immobilized stalkokine.

B1: vMIPII (ligand)
chain: GDTLGASWHRPDKCCLGYQKRPLPQVLLSSWYPTSQLCSKPGVIFLTKRGRQVCADKSKDWVKKLMQQLPVTAR
For the molecule B1, the binding result in test [1] is reported as “binds”.

B2: TARC, soluble chemokine (ligand, human, UniProt Q92583 24-94, looked up)
chain: ARGTNVGRECCLEYFKGAIPLRKLKTWYQTSEDCSRDAIVFVTVQGRAICSDPNNKRVKNAVKYLQSLERS
notes: Also used radiolabeled as tracer on CEM cells; also called soluble TARC; radiolabeled TARC
Consider B2, for which the binding result in test [2] was “binds”.

B3: I309-FRAC (I309 stalkokine) (ligand, human, not shown: small tags and cut ends)
chain: KSMQVPFSRCCFSFAEQEIPLRAILCYRNTSSICSNEGLIFKLKRGKEACALDTVGWVQRHRKMLRHCPSKRKEFGGTFEKQIGEVKPRTTPAAGGMDESVVLEPEATGESSSLEPTPSSQEAQRALGTSPELPTGVTGSSGTRLPPTPKAQDGGPVGTELFRVPPVSTAATWQSSAPHQPGPSLWAEAKTSEAPSTQDPSTQASTASSPAPEENAPSEGQRVWGQGQSPRPENSLEREEMGPVPAHTDAFQDWGPGSMAHVSVVPVSSEGTPSREPVASGSWTPKAEEPIHATMDPQRLGVLITPVPDAQA
notes: mature; also called I309 (stalkokine form); 1309-FRAC
In the case of B3, the binding result in [3] is recorded as “binds”.

B4: TECK, soluble recombinant native form chemokine (ligand, UniProt O15444 24-150, looked up)
chain: QGVFEDCCLAYHYPIGWAVLRRAWTYRIQEVSGSCNLPAAIFYLPKRHRKVCGNPKSREVQRAMKLLDARNKVFAKLHHNTQTFQAGPHAVKKLSSGNSKLSSSKFSNPISSSKRNVSLLISANSGL
notes: mature; Tracer was 125I-labeled TECK from Amersham; also called soluble TECK; cold TECK
Consider B4, for which the binding result in test [4] is listed as “binds”.

B5: ELC-stalkokine (ELC ligand domain, human fractalkine mucin stalk, myc epitope and poly-histidine) (ligand, not shown: small tags and cut ends)
chain: GTNDAEDCCLSVTQKPIPGYIVRNFHYLLIKDGCRVPAVVFTTLRGRQLCAPPDQPWVERIIQRLQRTSAKMKRRSSEFGGTFEKQIGEVKPRTTPAAGGMDESVVLEPEATGESSSLEPTPSSQEAQRALGTSPELPTGVTGSSGTRLPPTPKAQDGGPVGTELFRVPPVSTAATWQSSAPHQPGPSLWAEAKTSEAPSTQDPSTQASTASSPAPEENAPSEGQRVWGQGQSPRPENSLEREEMGPVPAHTDAFQDWGPGSMAHVSVVPVSSEGTPSREPVASGSWTPKAEEPIHATMDPQRLGVLITPVPDAQA
notes: mature; also called ELC-SK; ELC-FRAC
As for B5, the binding result in [5] and in [6] was “binds” in each case.

B6: ELC, soluble recombinant native form chemokine (ligand, UniProt Q99731 22-98, looked up)
chain: GTNDAEDCCLSVTQKPIPGYIVRNFHYLLIKDGCRVPAVVFTTLRGRQLCAPPDQPWVERIIQRLQRTSAKMKRRSS
notes: mature; also called soluble ELC; soluble native ELC
As to B6, the binding result in test [7] was “binds”.

B7: MDC-FRAC (stalkokine with a fractalkine stalk and an MDC ligand domain) (ligand, human, not shown: small tags and cut ends)
chain: GPYGANMEDSVCCRDYVRYRLPLRVVKHFYWTSDSCPRPGVVLLTFRDKEICADPRVPWVKMILNKLSQEFGGTFEKQIGEVKPRTTPAAGGMDESVVLEPEATGESSSLEPTPSSQEAQRALGTSPELPTGVTGSSGTRLPPTPKAQDGGPVGTELFRVPPVSTAATWQSSAPHQPGPSLWAEAKTSEAPSTQDPSTQASTASSPAPEENAPSEGQRVWGQGQSPRPENSLEREEMGPVPAHTDAFQDWGPGSMAHVSVVPVSSEGTPSREPVASGSWTPKAEEPIHATMDPQRLGVLITPVPDAQA
notes: mature; Used as cell supernatant, soluble (displacement, calcium flux) or immobilized through anti-His antibody (adhesion); also called MDC-SK; MDC-Stalkokine
For B7, the binding result (in the test with CCR4 on CEM cells [8]; in test [9]) was “binds” each time.

B8: MDC, soluble chemokine (ligand, human, UniProt O00626 25-93, looked up)
chain: GPYGANMEDSVCCRDYVRYRLPLRVVKHFYWTSDSCPRPGVVLLTFRDKEICADPRVPWVKMILNKLSQ
notes: Also used radiolabeled as tracer on CEM cells; also called MDC-CK; soluble MDC
For B8, the binding result (in the test with CCR4 on CEM cells [10]; in test [2]) was “binds” in each case.

B9: TARC-FRAC (stalkokine with a fractalkine stalk and a TARC ligand domain) (ligand, human, not shown: small tags and cut ends)
chain: ARGTNVGRECCLEYFKGAIPLRKLKTWYQTSEDCSRDAIVFVTVQGRAICSDPNNKRVKNAVKYLQSLERSEFGGTFEKQIGEVKPRTTPAAGGMDESVVLEPEATGESSSLEPTPSSQEAQRALGTSPELPTGVTGSSGTRLPPTPKAQDGGPVGTELFRVPPVSTAATWQSSAPHQPGPSLWAEAKTSEAPSTQDPSTQASTASSPAPEENAPSEGQRVWGQGQSPRPENSLEREEMGPVPAHTDAFQDWGPGSMAHVSVVPVSSEGTPSREPVASGSWTPKAEEPIHATMDPQRLGVLITPVPDAQA
notes: mature; Used as cell supernatant, soluble (displacement, calcium flux) or immobilized through anti-His antibody (adhesion); also called TARC-SK; TARC-Stalkokine
Turning to B9, the binding result (in the test with CCR4 on CEM cells [8]; in test [9]) was “binds” each time.

B10: MCP3-FRAC (MCP3 stalkokine) (ligand)
chain: not shown
notes: mature; also called MCP3 (stalkokine form); MCP3 tethered ligand; not shown: polylinker residues
As to B10, the binding result in test [11] is reported as “binds”.

B11: SLC-FRAC (SLC stalkokine) (ligand, human, not shown: small tags and cut ends)
chain: SDGGAQDCCLKYSQRKIPAKVVRSYRKQEPSLGCSIPAILFLPRKRSQAELCADPKELWVQQLMQHLDKTPSPQKPAQGCRKDRGASKTGKKGKGSKGCKRTERSQTPKGPEFGGTFEKQIGEVKPRTTPAAGGMDESVVLEPEATGESSSLEPTPSSQEAQRALGTSPELPTGVTGSSGTRLPPTPKAQDGGPVGTELFRVPPVSTAATWQSSAPHQPGPSLWAEAKTSEAPSTQDPSTQASTASSPAPEENAPSEGQRVWGQGQSPRPENSLEREEMGPVPAHTDAFQDWGPGSMAHVSVVPVSSEGTPSREPVASGSWTPKAEEPIHATMDPQRLGVLITPVPDAQA
notes: mature; also called SLC (stalkokine form); 6Ckine
Turning to B11, the binding result in [5] is “no binding”.

Source of the values: patent US6699677 (CHEMOCENTRYX, dated 2004).
